# Measured values taken from the DeepSol protein solubility set.
# Experiment: soluble on expression in E. coli; label from the status in PepcDB or PDB records
row,Sequence,soluble on expression in E. coli
1,MSAIEVKNLVKKFHGQTVLHGIDLEVKPGEVVAIIGPSGSGKTTLLRSINLLEQPEAGTITVGDITIDTARSLSQQKSLIRQLRQHVGFVFQNFNLFPHRTVLENIIEGPVIVKGEPKEEATARARELLAKVGLAGKETSYPRRLSGGQQQRVAIARALAMRPEVILFDEPTSALDPELVGEVLNTIRQLAQEKRTMVIVTHEMSFARDVADRAIFMDQGRIVEQGAAKALFADPEQPRTRQFLEKFLLQ,soluble
2,MSAIEVTADAASTWDWPLQHNDGVVKVHNTKEKFEVGLDVQFFTPKEIEVKVSGQELLIHCRHETRSDNHGTVAREINRAYKLPDDVDVSTVKSHLATRGVLTITASKKA,soluble
3,MSAKDFLVELGTEELPPKALNSLGEAFLSGIEKGLKAAGLSYAAARFYAAPRRLAVLVEQLAVQQPDRTVNLDGPPLQAAFDASGNPTQAALGFAKKCGVDLQQIDKSGPKLRFIQTIAGQPAAGLLPGIVEASLNELPIPKRMRWAARREEFVRPTQWLVMLFGDDVVECEILAQKAGRESRGHRFHNPDNVRISSPAAYLEDLRGAHVLADFAERRELIAKRVAELAAEQQGSAIVPPSLLDEVTALVEWPVPLVCSFEERFLEVPQEALITTMQDNQKYFCLLDANGKLLPRFITVANVESKAPENIVSGNEKVVRPRLTDAEFFFKQDKKQPLESFNERLRNVVFQAQLGTVFEKAQRVSGLAAYIAERIGGNAQNASRAGILSKCDLATEMVGEFPEMQGIAGYYYATHGGEAEDVALALNEQYMPRGAGAELPSTLTGAAVAVADKLDTLVGIFGIGMLPTGSKDPYALRRAALGVLRILIEKQLDLDLVAAVNAAVEQYGDKVKAAGLAEQVLDFVFDRLRARYEDEGVDVAVYQSVRALKPSSPLDFDQRVQAVQAFRQLPEAEALAAANKRVSNILAKSEDEVPPNVDASLLVEAAEKALGSAVANAESEVAPLAAARDYRAALARLAALREPVDTFFADVMVNVDDAAVRANRYALLAKLRGSFLGVADIS,not soluble
4,MSALGAPAPYLHHPTDSHSGRVSFLGSQPSAEVTAVAQLLKDLDRSTFRKLLKLVVGALHGKDCREAVQHLGASANLSEERLAVLLAGTHTLLQQALRLPPASLKPDAFQDELQELGIPQDMIGDLASLAFGSQRPLLDSVAQQQGSSLPRVSNFRWRVDVAISTSAQSRSLQPSVLMQLKLTDGSAHRFEVPIAKFQELRYSVALVLKEMAELERKCERKLQD,not soluble
5,MSALRSVLLLCWRDIGHPQGGGSEAYLQRIGAQLAASGIAVTLRTARYPGAPRHELVDGVRISRAGGRYSVYLWALLAMAAARCGLGPLRRVRPDVVVDTQNGWPFVARLLYGRRSLVLVHHCHREQWPVAGRMMGRLGWYVESMLSPRLHRRNQYVTVSLPSARDLIALGVDSERIAVVRNGLDEAPSPTLSGPRAPTPRVVVLSRLVPHKQIEDALAAVAELQPRIPGLHLDIVGGGWWRQRLVDHVHRLDIADAVTFHGHVDDVTKHHVLQSSWVHLLPSRKEGWGLAVIEAAQHGVPTIGYRSSGGLADSIVDGVTGILVDDRAELVAWLEQLLSDSVLRDQLGAKAQARSGEFSWRQSAEALRSVLEAVQASRFVSGVV,soluble
6,MSANDFKPETWTSSANEALRVSIVGENAVQFSPLFTYPIYGDSEKIYGYKDLIIHLAFDSVTFKPYVNVKYSAKLGDDNIVDVEKKLLSFLPKDDVIVRDEAKWVDCFAEERKTHNLSDVFEKVSEYSLNGEEFVVYKSSLVDDFARRMHRRVQIFSLLFIEAANYIDETDPSWQIYWLLNKKTKELIGFVTTYKYWHYLGAKSFDEDIDKKFRAKISQFLIFPPYQNKGHGSCLYEAIIQSWLEDKSITEITVEDPNEAFDDLRDRNDIQRLRKLGYDAVFQKHSDLSDEFLESSRKSLKLEERQFNRLVEMLLLLNNSPSFELKVKNRLYIKNYDALDQTDPEKAREALQNSFILVKDDYRRIIESINKSQG,not soluble
7,MSAPLIDKYRKMATFDWKKLKAAVEGEEHVRLKSEVVAKMKSEPVFHRDYRVLSREEQREVVHQRWKKIVEWGLFKDPYSDLENFHALTETLEAYDQGTSARLFLHGNVFGAAVKSMGTDRHKDLIQKTENNEIVGAFCLTEVGHGSNTAEIQTTATFDNGELVFNTPSVSAIKCWAGNLAHSATHVVVYAQLHVEGKNEGFHGFVIQVRCPRTFQTLPGITIGDMGSKPGCWQGVENGWMEFKNHRAPLSALLNKGCDITPDGKYVTSFKSASEKQSVSLGTLSVGRLGIIAKGMMACTFASTIAIRYSVARRQFGPVKGAENEIPVLEYPLQQYRLFPYLSAAICIRIFQKKFVGHFTEYMMRVIMGEKSDELSEFSKEVHALSSGAKPVATWLGVESLGEARKACGGHGYLQMSRLNTLRDDNDPSQTFEGENFMILQQTSNILLGKAQSIGSIETPMSTMSFLNQKPSKFSSWSSNPVNDVLSAYRYLTYHLLQTTSAEAYRLKASGKNSFEVRNEIQIHRAVNLSVAYTEHTMIHWVQQFLKEIEDQSVKPVLQKVLNLFSLFLLERHLATLYITGYASGGKFGEDLREKLRLAVAELKPEAIALVDSIAPDDFILHSALGASDGKAYEHIMEEFRKYTNEQPRWVCDLAQFLQKRSQGSKL,not soluble
8,MSAPVQCPIHPDVHLIEDHRAGDLVCPACGLVVGDRLVDVGTEWRSFSNERSGNDPSRVGAPENPLLSGGDLSTTIAVGFGGSDSDNSLANAQRKSMNNTDRQMTAAMSLIREMSERIHLPRNIQDSASRIFKDVLESKALRGKNNEAQAAACLYIACRKDGVPRTFKEICAVSRVSKKEIGRCFKIIVRSLETNLEQITSADFMSRFCGNLSLPNSIQAAATRIAKCAVDMDLVAGRTPISIAAAAIYMASQASAEKRSAKEIGDVAGAAEITVRQTYKLLYPKALELFPKDFRFVTPIDALPNS,not soluble
9,MSASQKEGKLSTATISVDGKSAEMPVLSGTLGPDVIDIRKLPAQLGVFTFDPGYGETAACNSKITFIDGDKGVLLHRGYPIAQLAENASYEEVIYLLLNGELPNKAQYDTFTNTLTNHTLLHEQIRNFFNGFRRDAHPMAILCGTVGALSAFYPDANDIAIPANRDLAAMRLIAKIPTIAAWAYKYTQGEAFIYPRNDLNYAENFLSMMFARMSEPYKVNPVLARAMNRILILHADHEQNASTSTVRLAGSTGANPFACIAAGIAALWGPAHGGANEAVLKMLARIGKKENIPAFIAQVKDKNSGVKLMGFGHRVYKNFDPRAKIMQQTCHEVLTELGIKDDPLLDLAVELEKIALSDDYFVQRKLYPNVDFYSGIILKAMGIPTSMFTVLFAVARTTGWVSQWKEMIEEPGQRISRPRQLYIGAPQRDYVPLAKR,soluble
10,MSCSHYEERVEKVELPQLKVNGMAIGEDLLARELQYHPADSYALALEAACRALIVRQLLLQRADALGIEARCEDGETPEEARIRQLLEEEVQVPEADEDACRTWYAANPGRLLGPWRLQLRHVLLACAPDDLEGRETARKQAAELLDELRGHPERFVDLARRFSACPSKESGGDLGWIEPGQTVPEFEKRLLRRAPGLLEHPLESRYGLHVVELLAREGGEPLDFDAARAQIAAHLQAQVLQRAVGQYIGVLAGD,not soluble
11,MSDALLAPLNEAQRQAVLHFEGPALVVAGAGSGKTRTVVHRVAYLVARRGVFPSEILAVTFTNKAAEEMRERLRGLVPGAGEVWVSTFHAAALRILRVYGERVGLRPGFVVYDEDDQTALLKEVLKELALSARPGPIKALLDRAKNRGVGLKALLGELPEYYAGLSRGRLGDVLVRYQEALKAQGALDFGDILLYALRLLEEDEEVLRLVRKRARFIHVDEYQDTSPVQYRFTRLLAGEEANLMAVGDPDQGIYSFRAADIKNILDFTRDYPEARVYRLEENYRSTEAILRFANAVIVKNALRLEKALRPVKRGGEPVRLYRAEDAREEARFVAEEIARLGPPWDRYAVLYRTNAQSRLLEQALAGRGIPARVVGGVGFFERAEVKDLLAYARLALNPLDAVSLKRVLNTPPRGIGPATWARVQLLAQEKGLPPWEALKEAARTFSRPEPLRHFVALVEELQDLVFGPAEAFFRHLLEATDYPAYLREAYPEDAEDRLENVEELLRAAKEAEDLQDFLDRVALTAKAEEPAEAEGRVALMTLHNAKGLEFPVVFLVGVEEGLLPHRNSVSTLEGLEEERRLFYVGITRAQERLYLSHAEEREVYGRREPARPSRFLEEVEEGLYEVYDPYRRPPSPPPHRPRPGAFRGGERVVHPRFGPGTVVAAQGDEVTVHFEGFGLKRLSLKYAELKPA,soluble
12,MSDDIFRLATVEDASELLKLVNSAFQPIRQLDIDWPSTRADIQMVSENIEHHSAIVLERDGKLISTITIRFPWESETPPSKYPFVWWFATLPEYKGQGAGSKLLTYVEEKVLRDMLKAPALTLGTSARKHPWLADMYRRRGYEVYFEQEKDGDIGVMMHKVLIPERFNPTLLGAPSWA,soluble
13,MSDEIVTNKSVTYVNNTTPVTITSSELDLRSCYQDDEVVIEVHAAALNPIDFITHQLCNSYIFGKYPKTYSRDYSGVIIKAGKDVDNRWKVGDKVNGMYSHIYGERGTLTHYLILNPAKDVPITHMVEVPKDENDPYDDFVYAAAWPLTFGTAFSTLYDFKKDWTSDSKVLVIGASTSVSYAFVHIAKNYFNIGTVVGICSKNSIERNKKLGYDYLVPYDEGSIVENVKKLKQSVLENDKFDMIFDSVGNHDFFPVIDQFLKPKAKNSFYVTIAGNNKADYKNISWRDFVSLSSILKAINPFKKYNWRFGHPYPPNNFIEVGNEMIKKGTYKPPIDSVYEFDQYKEAIDRLMSNRAKGKVVVKMK,soluble
14,MSDEKIINQPQDVVSEMLDGLTYAYGDLIEKVPDFEIIQRKSPKSGKVALVSGGGSGHEPAHAGFVGEGMLSAAVCGAIFTSPTPDQIYEAIKSADEGAGVLLIIKNYLGDVMNFEMAREMAEMEEIKVEQIIVDDDIAVENSLYTQGRRGVAGTVLVHKILGAAAHQEASLDEIKDLADKVVKNIKTIGLALSAATVPEVGKPGFVLDDNEIEYGVGIHSEPGYRREKMKTSYELATELVGKLKEEFKFEAGQKYGILVNGMGATPLMEQFIFMNDVAKLLTEENIEILFKKVGNYMTSIDMAGLSLTMIKLEDDQWLKNLNEDVKTISWG,soluble
15,MSDETDWYGPEAATFGDRLAAAREASGMTQAQLARRLGVKKATINGWEDDLSEPRANRLSMLAGLLNVSIVWLITGEGQGGEALNETDETARDMAALLTELRSLRADLQASGQRAARLEKQLRQIMEHSA,not soluble
16,MSDFLKDCFQKIGWEKDHVSFGDLPLFLKAMAYRFPFENRAVLAKENYKITKEELWRRLLKDQHGGLCYDLNGFLYFVLREAGFHVKLIRGTVYAGDQEGWALEGTHAAVWLSAENGDYLVDIGFGINLALQPIPLSGETVQSPVGSFRIKKEETEKGSYVLLMDKGEGWQIGYAFTLEESDLGDLDNMKDIIHSHEKSPFNKSLLASKLTPSGRMVMSERHFTIYENGGNIQKSDIGPSGFEEKLNTH,not soluble
17,MSDLVTKFESLIISKYPVSFTKEQSAQAAQWESVLKSGQIQPHLDQLNLVLRDNTFIVSTLYPTSTDVHVFEVALPLIKDLVASSKDVKSTYTTYRHILRWIDYMQNLLEVSSTDKLEINHDLDLPHEVIEKKKKAPAGGAADAAAKADEDVSKKAKKQDHPRGKPDEETLKKLREEAKAKKAAKKAANAKQQQEQQNKAPEKPKPSAIDFRVGFIQKAIKHPDADSLYVSTIDVGDEEGPRTVCSGLVKHFPLDAMQERYVVVVCNLKPVNMRGIKSTAMVLCGSNDDKVEFVEPPKDSKAGDKVFFEGFGDEAPMKQLNPKKKIWEHLQPHFTTNDGLEVIFKDEEEKDHPVRKLTNAKGESFKVASIANAQVR,not soluble
